These results are taken from article PMC10693601.

Several values for one entry are separate records, joined by “and”; a condition that tells them apart may be missing. Equal values may be shown once.

The target of the test is AIM2 (Absent In Melanoma 2), full length, without MBP tag, labeled with Alexa Fluor 488 (human) (UniProt O14862). Briefly: single-molecule confocal fluorescence microscopy with optical tweezers; Alexa 488-labeled protein (~0.2-14 nM) in the protein channel, on a single biotinylated lambda-phage dsDNA (48.5 kbp) tethered between two optically trapped streptavidin beads; 2D scans, movies and kymographs; oligomer size from photon counts (11 per fluorophore); 20 mM HEPES pH 7.5, 160 mM KCl, 1 mM BME, 0.1% Triton X-100, 5% glycerol; room temperature.

By stoichiometry N is commonly meant a count of units in the complex or per binding partner. Take “AIM2 (Absent In Melanoma 2), full length, without MBP tag, labeled with Alexa Fluor 488 (from UniProt O14862 1-343) (natural protein)”: the oligomer growth rate (highest observed) is under 28 molecules/s; the oligomer growth rate (oligomers of 1-20 molecules, low nanomolar) lay within 0.2 to 7 molecules/s; the oligomer growth rate at 0.5 nM AIM2 was found to be 7.4 s⁻¹; the oligomer growth rate at 1 nM AIM2 (bottom kymograph, dimer to hexamer) was found to be 94 s⁻¹. Also, the oligomer growth rate at 1 nM AIM2 (middle kymograph, starting from a monomer) is 5.8 s⁻¹; the oligomer growth rate at 2 nM AIM2 came to 10.7 s⁻¹; the oligomer growth rate at 2 nM AIM2 (4 to 6 molecules) was 11.4 s⁻¹; the oligomer growth rate at 10 nM AIM2 (4 to 11 molecules) is 25.3 s⁻¹. For the same substance, the oligomer growth rate at 10 nM AIM2 (top kymograph) came to 302 s⁻¹; the oligomer growth rate at 13.5 nM AIM2 was 34 s⁻¹; the stoichiometry N is < 25 molecules and 13 molecules to 15 molecules (2×).
